For data set [1], the system named is HA epitope tagged Del301-303 alpha-2B adrenergic receptor.
The target in data set [2] is HA epitope tagged Del301-303 alpha-2B adrenergic receptor (human) (UniProt P18089). Briefly: cell-based or functional assay.
Data set [3] addresses HA epitope tagged wild-type alpha-2B adrenergic receptor (human) (UniProt P18089). Briefly: cell-based or functional assay.
Another data set deals with Gi. Briefly: cell-based or functional assay.
A further data set deals with Gi/Go. Briefly: cell-based or functional assay.

Changes are numbered by the printed parent chain.

These results are taken from patent publication US20030113725A1.

GRK2 (βARK1): in data set [1], the “agonist-promoted phosphorylation as percent of wild-type” value is listed as “the Del301-303 receptor displayed -56% of wild-type phosphorylation” and the “basal phosphorylation, compared with the wild-type receptor” value is recorded as “Basal phosphorylation was equivalent between the two receptors”.
Regarding GRK2 (βARK1) (enzyme), the agonist-promoted whole cell receptor phosphorylation (norepinephrine, COS-7 cells coexpressing GRK2) (fold increase) was determined as 3.28 in data set [2] and 5.84 in data set [3].

B1: polymorphic Lys251 alpha-2A adrenergic receptor, P08913 16-465 (receptor)
chain: MGSLQPDAGNASWNGTEAPGGGARATPYSLQVTLTLVCLAGLLMLLTVFGNVLVIIAVFTSRALKAPQNLFLVSLASADILVATLVIPFSLANEVMGYWYFGKAWCEIYLALDVLFCTSSIVHLCAISLDRYWSITQAIEYNLKRTPRRIKAIIITVWVISAVISFPPLISIEKKGGGGGPQPAEPRCEINDQKWYVISSCIGSFFAPCLIMILVYVRIYQIAKRRTRVPPSRRGPDAVAAPPGGTERRPKGLGPERSAGPGGAEAEPLPTQLNGAPGEPAPAGPRDTDALDLEESSSSDHAERPPGPRRPERGPRGKGKARASQVKPGDSLPRRGPGATGIGTPAAGPGEERVGAAKASRWRGRQNREKRFTFVLAVVIGVFVVCWFPFFFTYTLTAVGCSVPRTLFKFFFWFGYCNSSLNPVIYTIFNHDFRRAFKKILCRGDRKRIV
In the data set with Gi, B1 showed an inhibition of adenylyl cyclase (epinephrine, CHO membranes) of 60 % inhibition; a maximal inhibition of adenylyl cyclase (partial agonist oxymetazoline, CHO membranes) of 50 % inhibition; a stimulation of MAP kinase (10 µM epinephrine, CHO cells) (fold increase over basal) of 57.

B2: wild-type Asn251 alpha-2A adrenergic receptor, P08913 16-465 (receptor)
chain: B1 chain with K251N
B2: in the data set with Gi, the inhibition of adenylyl cyclase (epinephrine, CHO membranes) was determined as 46 % inhibition; the maximal inhibition of adenylyl cyclase (partial agonist oxymetazoline, CHO membranes) was found to be 35 % inhibition; the stimulation of MAP kinase (10 µM epinephrine, CHO cells) (fold increase over basal) worked out at 15.

B3: Del322-325 alpha-2C adrenergic receptor, P18825 1-462 (receptor)
chain: MASPALAAALAVAAAAGPNASGAGERGSGGVANASGASWGPPRGQYSAGAVAGLAAVVGFLIVFTVVGNVLVVIAVLTSRALRAPQNLFLVSLASADILVATLVMPFSLANELMAYWYFGQVWCGVYLALDVLFCTSSIVHLCAISLDRYWSVTQAVEYNLKRTPRRVKATIVAVWLISAVISFPPLVSLYRQPDGAAYPQCGLNDETWYILSSCIGSFFAPCLIMGLVYARIYRVAKRRTRTLSEKRAPVGPDGASPTTENGLGAAAGAGENGHCAPPPADVEPDESSAAAERRRRRGALRRGGRRRAGAEGGAGGADGQGAAESGALTASRSPGPGGRLSRASSRSVEFFLSRRRRARSSVCRRKVAQAREKRFTFVLAVVMGVFVLCWFPFFFIYSLYGICREACQVPGPLFKFFFWIGYCNSSLNPVIYTVFNQDFRPSFKHILFRRRRRGFRQ
Consider B3, for which, in the data set with Gi/Go, the epinephrine-stimulated accumulation of inositol phosphates (10 µM, intact CHO cells) stood at 11 % over basal; the high affinity dissociation constant KH of the agonist epinephrine (competition with [3H]yohimbine without GTP) came to 7.3 nM; the impairment of inositol phosphate accumulation against wild-type came to 60 % impairment; the percentage of receptors in the high-affinity state (% RH), epinephrine competition without GTP is 31%. In the data set with Gi, the Max Inhibition (%) of adenylyl cyclase, BHT-933 worked out at 26.7%; the Max Inhibition (%) of adenylyl cyclase, UK 14304 turned out to be 30.8%; the Max Inhibition (%) of adenylyl cyclase, clonidine is 20.9%; the Max Inhibition (%) of adenylyl cyclase, guanabenz was 30%. In the data set with Gi, this molecule registered a Max Inhibition (%) of adenylyl cyclase, norepinephrine of 34.9%; a Max Inhibition (%) of adenylyl cyclase, oxymetazoline of 12.8%; an impairment of maximal adenylyl cyclase inhibition against wild-type (higher expressing CHO lines) of 50 % impairment; an inhibition of adenylyl cyclase (epinephrine, lower expressing CHO lines) of 10 % inhibition. The maximal inhibition of adenylyl cyclase (epinephrine, higher expressing CHO lines) in the data set with Gi came to 31 % inhibition.

B4: wild-type alpha-2C adrenergic receptor, P18825 1-462 (receptor)
chain: MASPALAAALAVAAAAGPNASGAGERGSGGVANASGASWGPPRGQYSAGAVAGLAAVVGFLIVFTVVGNVLVVIAVLTSRALRAPQNLFLVSLASADILVATLVMPFSLANELMAYWYFGQVWCGVYLALDVLFCTSSIVHLCAISLDRYWSVTQAVEYNLKRTPRRVKATIVAVWLISAVISFPPLVSLYRQPDGAAYPQCGLNDETWYILSSCIGSFFAPCLIMGLVYARIYRVAKRRTRTLSEKRAPVGPDGASPTTENGLGAAAGAGENGHCAPPPADVEPDESSAAAERRRRRGALRRGGRRRAGAEGGAGGADGQGAGPGAAESGALTASRSPGPGGRLSRASSRSVEFFLSRRRRARSSVCRRKVAQAREKRFTFVLAVVMGVFVLCWFPFFFIYSLYGICREACQVPGPLFKFFFWIGYCNSSLNPVIYTVFNQDFRPSFKHILFRRRRRGFRQ
In the data set with Gi/Go, B4 yielded an epinephrine-stimulated accumulation of inositol phosphates (10 µM, intact CHO cells) of 30 % over basal; a high affinity dissociation constant KH of the agonist epinephrine (competition with [3H]yohimbine without GTP) of 3.7 nM; a percentage of receptors in the high-affinity state (% RH), epinephrine competition without GTP of 49%. In the data set with Gi, this molecule gave a Max Inhibition (%) of adenylyl cyclase, BHT-933 of 56.8%; a Max Inhibition (%) of adenylyl cyclase, UK 14304 of 67.6%; a Max Inhibition (%) of adenylyl cyclase, clonidine of 38.5%; a Max Inhibition (%) of adenylyl cyclase, guanabenz of 53.8%. Moreover, in the data set with Gi, the Max Inhibition (%) of adenylyl cyclase, norepinephrine was 76.6%; the Max Inhibition (%) of adenylyl cyclase, oxymetazoline is 27%; the inhibition of adenylyl cyclase (epinephrine, lower expressing CHO lines) is 73 % inhibition; the maximal inhibition of adenylyl cyclase (epinephrine, higher expressing CHO lines) came to 60 % inhibition.
